Biological target: T1, TGR-1-expressing CHO cells (Homo sapiens, UniProt Q9GZQ4, A395T)
T1 construct: expressed in transfected cells; host or cells: CHO cells
Experiment: Site sensor assay of extracellular acidification rate in TGR-1-expressing CHO cells versus mock CHO cells
Format: cell-based
Details: exposed to the cells for 7 minutes and 2 seconds; step-wise decreased concentrations; compared with mock CHO cells; 3 cycles before exposure set as 100%
Experimental: In the site sensor assay, pig Neuromedin U-8 at the concentrations indicated in FIG. 1 was reacted to TGR-1-expressing CHO cells (●) and mock CHO cells (◯) for 7 minutes and 2 seconds. The maximum of acidification rate during the reaction was plotted.
[10] TGR-1-expressing cells changes extracellular pH (acidification rate) in response to Neuromedin U. By measuring such change with a site sensor device (Molecular Device), the activity of Neuromedin U can be measured. The details of screening method for the compound that alters the binding between Neuromedin U and TGR-1 by measuring the extracellular pH change with the site sensor device are as follows.
TGR-1-expressing cells are cultivated in a capsule of the site sensor over night. […] After the pH becomes stable, measured is the pH change of the medium caused by refluxing the medium containing Neuromedin U or Neuromedin U and a test compound on the cells. An influence of the compound that alter the binding of Neuromedin U and TGR-1 can be measured by comparing the change of extracellular pH in TGR-1-expressing cells with that by the single administration of Neuromedin U. The compound that inhibits the change of extracellular pH by administrating Neuromedin U can be selected as a candidate substance that is capable of altering the binding property between Neuromedin U and TGR-1. […]

T1 sequence (Q9GZQ4 whole entry A395T): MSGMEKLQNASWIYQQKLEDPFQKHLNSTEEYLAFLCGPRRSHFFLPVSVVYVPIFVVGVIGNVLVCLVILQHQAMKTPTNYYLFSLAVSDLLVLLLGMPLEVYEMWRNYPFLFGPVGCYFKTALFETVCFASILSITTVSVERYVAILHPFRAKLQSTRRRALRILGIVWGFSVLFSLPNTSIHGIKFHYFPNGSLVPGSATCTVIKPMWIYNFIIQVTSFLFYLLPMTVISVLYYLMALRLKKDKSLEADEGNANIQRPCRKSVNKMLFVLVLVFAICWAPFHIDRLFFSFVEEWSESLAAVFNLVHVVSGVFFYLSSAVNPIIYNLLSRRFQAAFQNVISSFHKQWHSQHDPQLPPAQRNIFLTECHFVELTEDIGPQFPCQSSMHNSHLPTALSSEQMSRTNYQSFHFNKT

Pig Neuromedin U-8: Pig Neuromedin U-8 peptide of 8 amino acid residues (BACHEM, H-5505, SEQ ID NO:5), ligand of TGR-1
TGR-1 receptor-specific cell-stimulating activity (peak acidification rate, rate of change in extracellular pH): reacted to Neuromedin U in a specific and does-dependent manner
